Results: US20240383995A1 (SHANGHAI HENLIUS BIOTECH, published 2024)

Target: T1, Human OX40 expressed on transfected Jurkat or CHO cells (human, UniProt P43489 29-277)
T1 construct: also called human OX40/Jurkat; human OX40/CHO
T1 sequence: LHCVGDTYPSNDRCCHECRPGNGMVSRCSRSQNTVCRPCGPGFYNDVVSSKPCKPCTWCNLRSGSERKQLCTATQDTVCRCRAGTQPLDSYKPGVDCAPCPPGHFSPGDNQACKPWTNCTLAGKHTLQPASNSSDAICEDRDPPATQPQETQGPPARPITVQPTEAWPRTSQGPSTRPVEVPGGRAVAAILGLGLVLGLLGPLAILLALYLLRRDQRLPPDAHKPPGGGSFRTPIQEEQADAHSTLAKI
Test: flow cytometry on human OX40-transfected Jurkat cells, Alexa Fluor488 anti-human IgG Fc, Geo MFI
Procedure: FIGS. 2A-2C depict whole cell binding of humanized anti-OX40 antibodies to human or cynomolgus OX40 assessed by flow cytometry. Human OX40-expressing Jurkat cells (FIG. 2A), human OX40-expressing CHO cells (FIG. 2B) and cynomolgus OX40-expressing CHO cells (FIG. 2C) were incubated with indicated anti-OX40 bivalent antibodies, and then stained with Alexa Fluor488 conjugated anti-human IgG Fc antibody. The fluorescence intensity was measured by flow cytometry.
Bivalent antibodies of these 15 clones were made by fusing VHH to human IgG1 Fc, expressed in ExpiCHO cells, and purified by Protein A affinity column. Binding affinity of the VHH-Fc bivalent antibodies to human or cynomolgus OX40 was evaluated by flow cytometry using Jurkat cells transfected with human OX40 (human OX40/Jurkat) (FIG. 2A), CHO cells transfected with human OX40 (human OX40/CHO) (FIG. 2B), and CHO cells transfected with cynomolgus OX40 (cyno OX40/CHO) (FIG. 2C). These antibodies with indicated concentrations were incubated with the cells in FACS buffer (3% FBS in PBS) on ice for 30 min, and the free antibodies were washed out with FACS buffer. […] Binding affinity was calculated using GraphPad Prism three parameter logistic equation. […]

B1: 1B3 VHH-Fc bivalent antibody (antibody, human IgG1, V domains shown)
VH: EVQLVESGGGLVQPGGSLRLSCAASGPLGMPSIAWFRQAPGKGLEFVSGIAWSTGDTYYADSVKGRFTISRDNSKNTLYLQMNSLRAEDTAVYYCAADTQVHYMGRHDIRDREEYDYWGQGTLVTVSS
notes: no light chain; also called 1B3-bivalent
With B1 the “EC50 (read off the curve)” value was roughly 3 nM.
